B1: Azoarcus group I ribozyme (parent)
chain: GUGCCUUGCGCCGGGAAACCACGCAAGGGAUGGUGUCAAAUUCGGCGAAACCUAAGCGCCCGCCCGGGCGUAUGGCAACGCCGAGCCAAGCUUCGGCGCCUGCGCCGAUGAAGGUGUAGAGACUAGACGGCACCCACCUAAGGCAAACGCUAUGGUGAAGGCAUAGUCCAGGGAGUGGCGAAAGUCACACAAACCGG

This data set covers variants of B1. Nature of the data set: reverse-splicing fitness (ratio to wild type); higher = more active; in vitro selection; Mg2+ level not given. Put shortly: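 An in vitro group I ribozyme library with randomized positions was T7-transcribed and gel-purified. In triplicate, 10 pmol RNA in EPPS pH 7.5 was reacted with 50 pmoles of a 30-nt RNA substrate for 1 h at 37 °C across several added MgCl2 levels (1–48 mM), then stopped with EDTA. Products were reverse transcribed from a substrate-complementary primer, PCR-amplified and sequenced (HiSeq 4000). Fitness is a variant's read proportion after selection over that before, normalised to wild type.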
As for GUGCCUUGCGCCGGGAAACCACGCAAGGGAUGGUGUCAAAUUCGGCGAAACCUAAGCGCCCGCCCGGGCGUAUGGCAACGCGGAGCCAAGCUUCGGCGCCUGCGCCGAUGCAGGUGUAGAGACUAGACGGCACCCACCUAAGGCUAACGCUAUGGUGAAGGCAUAGUCCAGGGAGUGGCGAAAGUCACACAAACCGG [C82G A111C A145U], the reverse-splicing fitness stood at 0.283.

Consider GUGCCUUGCGCCGGGAAACCACGCAAGGGAUGGUGUCAAAUUCGGCGAAACCUAAGCGCCCGCCCGGGCGUAUGGCAACGCGGAGCCAAGCUUCGGCGCCUGCGCCGAUGCAGGUGUAGAGACUAGACGGCACCCACCUAAGGCUAACGAUAUGGUGAAGGCAUAGUCGAGGGAGUGGCGAAAGUCACACAAACCGG [C82G A111C A145U C150A C169G], for which the reverse-splicing fitness was determined as 0.0077.

Consider GUGCCUUGCGCCGGGAAACCACGCAAGGGAUGGUGUCAAAUUCGGCGAAACCUAAGCGCCCGCCCGGGCGUAUGGCAACGCGGAGCCAAGCUUCGGCGCCUGCGCCGAUGCAGGUGUAGAGACUAGACGGCACCCACCUAAGGCUAACGAUAUGGUGAAGGCAUAGUCAAGGGAGUGGCGAAAGUCACACAAACCGG [C82G A111C A145U C150A C169A], for which the reverse-splicing fitness was found to be 0.00994.

For GUGCCUUGCGCCGGGAAACCACGCAAGGGAUGGUGUCAAAUUCGGCGAAACCUAAGCGCCCGCCCGGGCGUAUGGCAACGCGGAGCCAAGCUUCGGCGCCUGCGCCGAUGCAGGUGUAGAGACUAGACGGCACCCACCUAAGGCUAACGAUAUGGUGAAGGCAUAGUCUAGGGAGUGGCGAAAGUCACACAAACCGG [C82G A111C A145U C150A C169U], the reverse-splicing fitness stood at 0.0112.

For the variant GUGCCUUGCGCCGGGAAACCACGCAAGGGAUGGUGUCAAAUUCGGCGAAACCUAAGCGCCCGCCCGGGCGUAUGGCAACGCGGAGCCAAGCUUCGGCGCCUGCGCCGAUGCAGGUGUAGAGACUAGACGGCACCCACCUAAGGCUAACGGUAUGGUGAAGGCAUAGUCAAGGGAGCGGCGAAAGUCACACAAACCGG [C82G A111C A145U C150G C169A U176C], the reverse-splicing fitness came out at 0.0126.

Take GUGCCUUGCGCCGGGAAACCACGCAAGGGAUGGUGUCAAAUUCGGCGAAACCUAAGCGCCCGCCCGGGCGUAUGGCAACGCGGAGCCAAGCUUCGGCGCCUGCGCCGAUGCAGGUGUAGAGACUAGACGGCACCCACCUAAGGCUAACGGUAUGGUGAAGGCAUAGUCAAGGGAGAGGCGAAAGUCACACAAACCGG [C82G A111C A145U C150G C169A U176A]: the reverse-splicing fitness worked out at 0.00956.

Consider GUGCCUUGCGCCGGGAAACCACGCAAGGGAUGGUGUCAAAUUCGGCGAAACCUAAGCGCCCGCCCGGGCGUAUGGCAACGCGGAGCCAAGCUUCGGCGCCUGCGCCGAUGCAGGUGUAGAGACUAGACGGCACCCACCUAAGGCUAACGGUAUGGUGAAGGCAUAGUCAAGGGAGGGGCGAAAGUCACACAAACCGG [C82G A111C A145U C150G C169A U176G], for which the reverse-splicing fitness is 0.00734.

Regarding GUGCCUUGCGCCGGGAAACCACGCAAGGGAUGGUGUCAAAUUCGGCGAAACCUAAGCGCCCGCCCGGGCGUAUGGCAACGCGGAGCCAAGCUUCGGCGCCUGCGCCGAUGCAGGUGUAGAGACUAGACGGCACCCACCUAAGGCUAACGAUAUGGUGAAGGCAUAGUCAAGGGAGAGGCGAAAGUCACACAAACCGG [C82G A111C A145U C150A C169A U176A], the reverse-splicing fitness was 0.0135.

GUGCCUUGCGCCGGGAAACCACGCAAGGGAUGGUGUCAAAUUCGGCGAAACCUAAGCGCCCGCCCGGGCGUAUGGCAACGCGGAGCCAAGCUUCGGCGCCUGCGCCGAUGCAGGUGUAGAGACUAGACGGCACCCACCUAAGGCUAACGAUAUGGUGAAGGCAUAGUCAAGGGAGGGGCGAAAGUCACACAAACCGG [C82G A111C A145U C150A C169A U176G]: the reverse-splicing fitness was found to be 0.00941.

For GUGCCUUGCGCCGGGAAACCACGCAAGGGAUGGUGUCAAAUUCGGCGAAACCUAAGCGCCCGCCCGGGCGUAUGGCAACGCGGAGCCAAGCUUCGGCGCCUGCGCCGAUGCAGGUGUAGAGACUAGACGGCACCCACCUAAGGCUAACGAUAUGGUGAAGGCAUAGUCAAGGGAGCGGCGAAAGUCACACAAACCGG [C82G A111C A145U C150A C169A U176C], the reverse-splicing fitness is 0.0134.

As for GUGCCUUGCGCCGGGAAACCACGCAAGGGAUGGUGUCAAAUUCGGCGAAACCUAAGCGCCCGCCCGGGCGUAUGGCAACGCGGAGCCAAGCUUCGGCGCCUGCGCCGAUGCAGGUGUAGAGACUAGACGGCACCCACCUAAGGCUAACGGUAUGGUGAAGGCAUAGUCAAGGGAGUGGCGAAAGUCACACAAACCGG [C82G A111C A145U C150G C169A], the reverse-splicing fitness was 0.00796.

In the case of GUGCCUUGCGCCGGGAAACCACGCAAGGGAUGGUGUCAAAUUCGGCGAAACCUAAGCGCCCGCCCGGGCGUAUGGCAACGCGGAGCCAAGCUUCGGCGCCUGCGCCGAUGCAGGUGUAGAGACUAGACGGCACCCACCUAAGGCUAACGGUAUGGUGAAGGCAUAGUCGAGGGAGUGGCGAAAGUCACACAAACCGG [C82G A111C A145U C150G C169G], the reverse-splicing fitness worked out at 0.0063.

For the variant GUGCCUUGCGCCGGGAAACCACGCAAGGGAUGGUGUCAAAUUCGGCGAAACCUAAGCGCCCGCCCGGGCGUAUGGCAACGCGGAGCCAAGCUUCGGCGCCUGCGCCGAUGCAGGUGUAGAGACUAGACGGCACCCACCUAAGGCGAACGCUAUGGUGAAGGCAUAGUCCAGGGAGCGGCGAAAGUCACACAAACCGG [C82G A111C A145G U176C], the reverse-splicing fitness came to 0.147.

In the case of GUGCCUUGCGCCGGGAAACCACGCAAGGGAUGGUGUCAAAUUCGGCGAAACCUAAGCGCCCGCCCGGGCGUAUGGCAACGCGGAGCCAAGCUUCGGCGCCUGCGCCGAUGCAGGUGUAGAGACUAGACGGCACCCACCUAAGGCGAACGCUAUGGUGAAGGCAUAGUCCAGGGAGGGGCGAAAGUCACACAAACCGG [C82G A111C A145G U176G], the reverse-splicing fitness was found to be 0.0463.

Regarding GUGCCUUGCGCCGGGAAACCACGCAAGGGAUGGUGUCAAAUUCGGCGAAACCUAAGCGCCCGCCCGGGCGUAUGGCAACGCGGAGCCAAGCUUCGGCGCCUGCGCCGAUGCAGGUGUAGAGACUAGACGGCACCCACCUAAGGCGAACGCUAUGGUGAAGGCAUAGUCCAGGGAGAGGCGAAAGUCACACAAACCGG [C82G A111C A145G U176A], the reverse-splicing fitness came out at 0.129.

The record behind these values is the RNAGym collection of RNA variant scans (doi:10.1093/molbev/msab373).
